Test results reported in the supplement of paper PMC11908140.

B1: library; numbered along this chain (parent)
chain: MRKPRAAVGSGHRKQAASQEGRQKHAKNNSQAKPSACDGLARQPEEVVLQASVSSYHLFRDVAEVTAFRGSLLSWYDQEKRDLPWRRRAEDEMDLDRRAYAVWVSEVMLQQTQVATVINYYTGWMQKWPTLQDLASASLEEVNQLWAGLGYYSRGRRLQEGARKVVEELGGHMPRTAETLQQLLPGVGRYTAGAIASIAFGQATGVVDGNVARVLCRVRAIGADPSSTLVSQQLWGLAQQLVDPARPGDFNQAAMELGATVCTPQRPLCSQCPVESLCRARQRVEQEQLLASGSLSGSPDVEECAPNTGQCHLCLPPSEPWDQTLGVVNFPRKASRKPPREESSATCVLEQPGALGAQILLVQRPNSGLLAGLWEFPSVTWEPSEQLQRKALLQELQRWAGPLPATHLRHLGEVVHTFSHIKLTYQVYGLALEGQTPVTTVPPGARWLTQEEFHTAAVSTAMKKVFRVYQGQQPGTCMGSKRSQVSSPCSRKKPRMGQQVLDNFFRSHISTDAHSLNSAAQ

Variants of: B1
Assay: 8OG:A repair function score (normalized; synonymous = 0, nonsense = -1) (normalized log-likelihood score); higher = more repair activity (WT-like)
Details: with 8OG:A DNA repair reporter (GFP) in HEK-293 MUTYH KO cells
Experimental: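 Saturation mutagenesis (NNN codon scan) of the MUTYH cDNA (521-aa nuclear isoform NM_001048174.1 / NP_001041639), stably expressed under doxycycline induction in HEK-293 MUTYH knockout cells. Cells were co-transfected with an 8OG:A-bearing GFP repair reporter plus mCherry and sorted 72 h later into GFP+ and GFP− bins, three replicates per tile. The Rosace log2 enrichment (GFP+ vs GFP−) was converted per tile to a normalized function score with synonymous variants centered at 0 and nonsense variants (codons 1-471) at -1; low-abundance variants were removed.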

In order of rising “8OG:A repair function score” value:
1. W75D  -3.7
2. P84M  -1.8
3. Y100R  -1.63
4. C272F  -1.42
5. F68G  -1.41
6. W103K  -1.37
7. V104D  -1.33
8. G150R  -1.3
9. G150K  -1.27
10. S105K  -1.25
11. S197H  -1.22
12. L131W  -1.21
13. V117F  -1.21
14. W75G  -1.2
15. L360D  -1.19
16. C262P  -1.18
17. L360R  -1.17
18. M173R  -1.15
19. C262F  -1.14
20. V348P  -1.11
21. W374A  -1.1
22. F68H  -1.1
23. L361E  -1.08
24. R217Q  -1.03
25. P247K  -1.03
26. A253I  -1.02
27. R217Y  -1.01
28. P247R  -1
29. A259D  -1
30. V211K  -1
31. I221S  -0.991
32. E64Y  -0.98
33. L257W  -0.968
34. R217M  -0.936
35. I221N  -0.933
36. D224K  -0.928
37. V348E  -0.925
38. G186K  -0.9
39. N251I  -0.889
40. Y428C  -0.883
41. R81V  -0.851
42. W103A  -0.808
43. D61F  -0.794
44. L180G  -0.785
45. V207A  -0.78
46. G161M  -0.776
47. W374C  -0.633
48. P247S  -0.584
49. A371V  -0.554
50. V458P  -0.535
51. G70Q  -0.528
52. I118K  -0.483
53. A456Y  -0.476
54. F418S  -0.474
55. M125H  -0.401
56. W103F  -0.399
57. G155H  -0.388
58. L277P  -0.383
59. P331F  -0.357
60. M125C  -0.306
61. S378E  -0.297
62. L361A  -0.284
63. L241I  -0.264
64. E141G  -0.256
65. L131N  -0.249
66. R409M  -0.242
67. A461T  -0.23
68. G353E  -0.227
69. R189D  -0.22
70. R266E  -0.22
71. Q351E  -0.219
72. E395C  -0.217
73. L360F  -0.195
74. E79P  -0.189
75. E140Y  -0.187
76. R163A  -0.182
77. W381S  -0.174
78. E168Y  -0.173
79. K164S  -0.168
80. A456C  -0.168
81. S55L  -0.149
82. Q78P  -0.138
83. P44L  -0.133
84. A431W  -0.13
85. T263Q  -0.129
86. T380P  -0.128
87. E395R  -0.122
88. L131A  -0.104
89. V166F  -0.0998
90. P299N  -0.099
91. P264R  -0.0983
92. M462V  -0.097
93. T116W  -0.0903
94. P339R  -0.0864
95. G309Y  -0.0852
96. R336W  -0.0779
97. A67G  -0.0739
98. A357L  -0.0718
99. L73C  -0.0699
100. L370C  -0.0696
101. P339M  -0.0671
102. G479W  -0.0628
103. G401S  -0.0552
104. A291F  -0.0509
105. G356Y  -0.0505
106. L355C  -0.0489
107. K337H  -0.0482
108. P264N  -0.0423
109. V468K  -0.0375
110. M496I  -0.0358
111. G39I  -0.0353
112. A291L  -0.0339
113. E178Q  -0.0318
114. K333I  -0.0317
115. T263R  -0.0312
116. F504W  -0.0289
117. L268N  -0.0234
118. A291W  -0.0221
119. T511W  -0.0217
120. Y120M  -0.0214
121. K333Y  -0.0195
122. H312N  -0.0171
123. E285N  -0.0168
124. M478L  -0.0153
125. R88N  -0.0146
126. M478P  -0.0126
127. T511L  -0.0126
128. S276L  -0.0125
129. Y56E  -0.0123
130. D82P  -0.00741
131. M496G  -0.00643
132. Q351A  -0.00592
133. P494S  -0.00543
134. A89P  -0.00485
135. C489R  -0.0027
136. P488V  -0.00252
137. V62A  -0.00201
138. E285F  0.000814
139. P316E  0.0013
140. P488G  0.0021
141. D61L  0.00218
142. R506S  0.00235
143. A291K  0.00353
144. L268F  0.00448
145. L58E  0.0056
146. S71M  0.00635
147. F504L  0.0067
148. Q78E  0.00685
149. T228L  0.00837
150. T406V  0.013
151. E382M  0.019
152. Q472L  0.022
153. S298P  0.0228
154. L355N  0.0266
155. W381T  0.0347
156. Q132T  0.0372
157. Y120K  0.0493
158. V415L  0.0523
159. R409E  0.0558
160. P317S  0.0611
161. H312I  0.0886
162. L40V  0.0896
163. L393I  0.0907
164. R2G  0.122
165. T228P  0.212
166. G39N  0.241
167. W381H  0.26
